According to US10646622B2, “Biologically active implants” (priority 1998, dated 2020):

System: fracture of the right tibia
Type: in vivo, Sprague Dawley rats
Procedure: In an experiment with animals, tests were conducted on 60 such animals (5-months-old female Sprague Dawley rats). All test animals were subjected to a standardized fracture of the right tibia. Differently coated titanium wires (1.0 mm in diameter) were then implanted in the repositioned tibiae as intramedullary supports.
Depending on the group assignments as specified below 2 mg/kg of a rat-specific recombinant growth hormone (r-rGH) or a placebo was subcutaneously injected daily for a period of time up to 42 days. At various time points (0 d, 4 d, 7 d, 14 d, 21 d, 28 d, 35 d, and 42 d) and after administration of an anaesthetic inhalant, x-rays were taken in two planes, 1.25 ml of blood was taken from each by the retrobulbar method (deep-frozen at −80° C. (−112° F.)), and their weight and body temperature were measured. On day 42, the fractured and the unfractured tibiae, along with the periosteum, were separately prepared and subjected to biomechanical tests (torsional load-torsional stiffness).
Group Assignments • Group I: Fracture of the right tibia—uncoated implant— • Systemic application of a placebo (control group) • Group II: Fracture of the right tibia—implant coated with poly-D,L-lactide 203— • Systemic application of a placebo • Group III: Fracture of the right tibia—implant coated with poly-D,L-lactide— • Systemic application of (r-rGH) • Group IV: Fracture of the right tibia—implant coated with poly-D,L-lactide and growth factors IGF-I (5%) and TGF-β (1%)— • Systemic application of a placebo • Group V: Fracture of the right tibia—implant coated with poly-D,L-lactide and growth factors IGF-I (5%) and TGF-β (1%)— • Systemic application of (r-rGH)
The coated implants were produced as indicated in Example 1.

## poly(D,L) lactide [PDLLA]
rat, in vivo
  differences in weight and temperature among placebo groups I, II and IV: No major differences

B1: r-rGH: rat-specific recombinant growth hormone, subcutaneously injected (protein, UniProt P01244 27-216, looked up)
Somatotropin: FPAMPLSSLFANAVLRAQHLHQLAADTYKEFERAYIPEGQRYSIQNAQAAFCFSETIPAPTGKEEAQQRTDMELLRFSLLLIQSWLGPVQFLSRIFTNSLMFGTSDRVYEKLKDLEEGIQALMQELEDGSPRIGQILKQTYDKFDANMRSDDALLKNYGLLSCFKKDLHKAETYLRVMKCRRFAESSCAF
2 mg/kg s.c. daily, compared to placebo, p<0.05
  body weight increase: 13%
Day 42, systemic 2 mg/kg s.c. daily with implant coated with poly-D,L-lactide (Group III), p<0.05
  maximum torsional load: significant increase
